The target of data set [1] is Pyrococcus abyssi small ribosomal subunit (Pa-30S) (Pyrococcus abyssi). Description: fluorescence polarisation; fluorescence anisotropy of coumarin-labeled aIF1* (50 nM) titrated with purified Pa-30S, no mRNA; 51°C; 10 mM HEPES pH 7.5, 200 mM NaCl, 10 mM MgAc, 0.1% Tween 20; quadratic fit. A general note: Fluorescence polarisation rises when a labelled molecule tumbles more slowly, as on binding a larger partner.

For data set [2] the target is unchanged. As to the kind of experiment: fluorescence polarisation; fluorescence anisotropy of coumarin-labeled aIF1 (50 nM for the variants; 13 nM for Pa-aIF1*) titrated with Pa-30S:mRNA complex (30S with a 2-fold molar excess of mRNA); 51°C; 10 mM HEPES pH 7.5, 200 mM NaCl, 10 mM MgAc, 0.1% Tween 20; quadratic fit.
Data set [3] concerns Pa-30S small ribosomal subunit;Pa-aIF1*-K34A (Pyrococcus abyssi;Pyrococcus abyssi). Description: fluorescence anisotropy. The conditions noted are these: Anisotropy: 10 mM HEPES pH 7.5, 200 mM NaCl, 10 mM Mg acetate, 0.1% Tween 20, 51 C; toeprinting: 10 mM HEPES pH 7.5, 158 mM NaCl, 20 mM NH4Cl, 13.5 mM Mg ….
The subject of data set [4] is Pa-30S small ribosomal subunit;Pa-aIF1*-Y32A (Pyrococcus abyssi;Pyrococcus abyssi). As to the kind of experiment: fluorescence anisotropy. The conditions noted are these: Anisotropy: 10 mM HEPES pH 7.5, 200 mM NaCl, 10 mM Mg acetate, 0.1% Tween 20, 51 C; toeprinting: 10 mM HEPES pH 7.5, 158 mM NaCl, 20 mM NH4Cl, 13.5 mM Mg ….
The subject of data set [5] is Pa-30S small ribosomal subunit;Pa-aIF1*-R31A (Pyrococcus abyssi;Pyrococcus abyssi). Description: fluorescence anisotropy. As to conditions: Anisotropy: 10 mM HEPES pH 7.5, 200 mM NaCl, 10 mM Mg acetate, 0.1% Tween 20, 51 C; toeprinting: 10 mM HEPES pH 7.5, 158 mM NaCl, 20 mM NH4Cl, 13.5 mM Mg ….
The subject of data set [6] is Pa-30S small ribosomal subunit;Pa-aIF1* (MDCC-coumarin labeled) (Pyrococcus abyssi;Pyrococcus abyssi). Description: fluorescence anisotropy. As to conditions: Kd of aIF1* for 30S:mRNA; best fit 0.2 nM; Anisotropy: 10 mM HEPES pH 7.5, 200 mM NaCl, 10 mM Mg acetate, 0.1% Tween 20, 51 C; toeprinting: 10 mM HEPES pH 7.5, 158 mM NaCl, 20 mM NH4Cl, 13.5 mM Mg ….
In data set [7] the test system is Pa-30S small ribosomal subunit;Pa-aIF1* unlabeled (Pyrococcus abyssi;Pyrococcus abyssi). As to the kind of experiment: competition. The conditions noted are these: Kd of unlabeled aIF1* for 30S:mRNA; 180 nM mRNA; Anisotropy: 10 mM HEPES pH 7.5, 200 mM NaCl, 10 mM Mg acetate, 0.1% Tween 20, 51 C; toeprinting: 10 mM HEPES pH 7.5, 158 mM NaCl, 20 mM NH4Cl, 13.5 mM Mg ….

Data set [8] concerns Pa-aIF1*-Y32A (Pyrococcus abyssi). As to the kind of experiment: fluorescence anisotropy. As to conditions: Anisotropy: 10 mM HEPES pH 7.5, 200 mM NaCl, 10 mM Mg acetate, 0.1% Tween 20, 51 C; toeprinting: 10 mM HEPES pH 7.5, 158 mM NaCl, 20 mM NH4Cl, 13.5 mM Mg ….
The subject of data set [9] is Pa-aIF1*-K34A (Pyrococcus abyssi). As to the kind of experiment: fluorescence anisotropy. As to conditions: Anisotropy: 10 mM HEPES pH 7.5, 200 mM NaCl, 10 mM Mg acetate, 0.1% Tween 20, 51 C; toeprinting: 10 mM HEPES pH 7.5, 158 mM NaCl, 20 mM NH4Cl, 13.5 mM Mg ….
Data set [10] has as its system Pa-aIF1* (MDCC-coumarin labeled) (Pyrococcus abyssi). Description: fluorescence anisotropy. The conditions noted are these: aIF1* binding to 30S, no mRNA; Anisotropy: 10 mM HEPES pH 7.5, 200 mM NaCl, 10 mM Mg acetate, 0.1% Tween 20, 51 C; toeprinting: 10 mM HEPES pH 7.5, 158 mM NaCl, 20 mM NH4Cl, 13.5 mM Mg ….
The test system of data set [11] is Pa-aIF1*-R31A (Pyrococcus abyssi). As to the kind of experiment: fluorescence anisotropy. The conditions noted are these: Anisotropy: 10 mM HEPES pH 7.5, 200 mM NaCl, 10 mM Mg acetate, 0.1% Tween 20, 51 C; toeprinting: 10 mM HEPES pH 7.5, 158 mM NaCl, 20 mM NH4Cl, 13.5 mM Mg ….
The test system of data set [12] is Pa-aIF1* unlabeled (Pyrococcus abyssi). As to the kind of experiment: competition. The conditions noted are these: chase of labeled aIF1* from 30S; Anisotropy: 10 mM HEPES pH 7.5, 200 mM NaCl, 10 mM Mg acetate, 0.1% Tween 20, 51 C; toeprinting: 10 mM HEPES pH 7.5, 158 mM NaCl, 20 mM NH4Cl, 13.5 mM Mg ….
Data set [13] deals with Pyrococcus abyssi small ribosomal subunit (Pa-30S) (Pyrococcus abyssi). As to the kind of experiment: fluorescence polarisation; fluorescence anisotropy of coumarin-labeled aIF1 (50 nM for the variants; 13 nM for Pa-aIF1*) titrated with Pa-30S:mRNA complex (30S with a 2-fold molar excess of mRNA); 51°C; 10 mM HEPES pH 7.5, 200 mM NaCl, 10 mM MgAc, 0.1% Tween 20; quadratic fit. The source holds these as a separate data set.

Data set [14] deals with Pa-30S small ribosomal subunit;Pa-aIF1 (Pyrococcus abyssi;Pyrococcus abyssi). As to the kind of experiment: fluorescence anisotropy. As to conditions: preformed 30S:aIF1; mRNA 0.5 nM; Anisotropy: 10 mM HEPES pH 7.5, 200 mM NaCl, 10 mM Mg acetate, 0.1% Tween 20, 51 C; toeprinting: 10 mM HEPES pH 7.5, 158 mM NaCl, 20 mM NH4Cl, 13.5 mM Mg ….
Data set [15] relates to Pa-30S small ribosomal subunit (Pyrococcus abyssi). As to the kind of experiment: fluorescence anisotropy. The conditions noted are these: 30S alone; mRNA 8 nM; Anisotropy: 10 mM HEPES pH 7.5, 200 mM NaCl, 10 mM Mg acetate, 0.1% Tween 20, 51 C; toeprinting: 10 mM HEPES pH 7.5, 158 mM NaCl, 20 mM NH4Cl, 13.5 mM Mg ….
Data set [16] addresses Pyrococcus abyssi small ribosomal subunit (Pa-30S) (Pyrococcus abyssi).

Consider Pa-aIF1*-K34A (natural protein), for which the values for the dissociation constant (Kd) in data set [1] and in data set [2] were greater than 300 nM and 45 nM, respectively.
Regarding “AUUUGGAGGUGAUUUAAAUGCCAAAG [wt-aEF1A mRNA 26-mer, unlabeled]”, the equilibrium dissociation constant (Kd) in data set [3] is 45 nM; in [4], 22 nM; in [5] it was less than 3 nM; in data set [6], less than 1 nM; in [7], 0.4 nM.
As for “Pa-30S (16S rRNA in small ribosomal subunit)”, the Kd in data set [8] is 20 nM; in data set [9], greater than 300 nM; in data set [10], 12 nM; in [11], 84 nM; in data set [12] it was 40 nM.
On to “Pa-aIF1* (Pyrococcus abyssi aIF1 K45C-C62S labeled with coumarin) (natural protein)”, for which the Kd is 12 nM in data set [1], less than 1 nM in [2] and 0.2 nM in data set [13].
As to “AUUUGGAGGUGAUUUAAAUGCCAAAG [wt-aEF1A-mRNA 26-mer]”, the Kd in data set [14] stood at 0.07 nM; in [15], 3.3 nM.
Take Pa-aIF1*-R31A (natural protein): the Kd in data set [1] was 84 nM; in data set [2], less than 3 nM.
For Pa-aIF1-K34A (natural protein), the factor concentration needed for a toeprinting pattern of 30S:mRNA:aIF1 like that of wt-Pa-aIF1 in [16] was 8 fold.
Take Pa-aIF1*-Y32A (natural protein): the Kd came to 20 nM in [1] and 22 nM in data set [2].

Broadly, the Kd is the constant that tells how readily two partners part at equilibrium. A high value points to lower affinity.

The values above are taken from publication PMC6237735.
